Data published in PMC8938504.

Legend:
[1] = molecular target: MBP:RGA5_HMAm1m2 (rice (Oryza sativa)) (UniProt F7J0N2); test: SPR; […] (single-cycle kinetics, […]; 25 °C; 20 mM Tris pH 8, 150 mM NaCl, 0.5 mM DTT; […]
the engineered RGA5_HMAs = test: as above
[2] = molecular target: MBP:RGA5_HMA (wild-type HMA domain of RGA5 fused to maltose-binding protein) (rice (Oryza sativa)) (UniProt F7J0N2); test: SPR; single-cycle kinetic titration, Biacore T200, 25 °C; […]; 20 mM Tris pH 8, 150 mM NaCl, 0.5 mM DTT, 0.05% P20; steady-state model

Row | Substance | Kd [1] | also measured
1 | 6×His-tagged AVR1-CO39 (natural protein) | 6.3 µM | 
2 | 6×His-tagged AVR-Pia (natural protein) | 5.9 µM | 
3 | 6×His-tagged AVR-PikD (from UniProt C4B8B8 22-113) (natural protein) |  | Kd (the engineered RGA5_HMAs): 0.0005 to 0.0016 µM
4 | AVR-PikD (dSP-AVR-PikD, His-tagged) (natural protein) |  | Kd [2]: 8.32 µM
